IntAct's records for PubMed 14532330

B1: Laforin (Homo sapiens), O95278 (parent)
chain: MRFRFGVVVPPAVAGARPELLVVGSRPELGRWEPRGAVRLRPAGTAAGDGALALQEPGLWLGEVELAAEEAAQDGAEPGRVDTFWYKFLKREPGGELSWEGNGPHHDRCCTYNENNLVDGVYCLPIGHWIEATGHTNEMKHTTDFYFNIAGHQAMHYSRILPNIWLGSCPRQVEHVTIKLKHELGITAVMNFQTEWDIVQNSSGCNRYPEPMTPDTMIKLYREEGLAYIWMPTPDMSTEGRVQMLPQAVCLLHALLEKGHIVYVHCNAGVGRSTAAVCGWLQYVMGWNLRKVQYFLMAKRPAVYIDEEALARAQEDFFQKFGKVRSSVCSL
partner: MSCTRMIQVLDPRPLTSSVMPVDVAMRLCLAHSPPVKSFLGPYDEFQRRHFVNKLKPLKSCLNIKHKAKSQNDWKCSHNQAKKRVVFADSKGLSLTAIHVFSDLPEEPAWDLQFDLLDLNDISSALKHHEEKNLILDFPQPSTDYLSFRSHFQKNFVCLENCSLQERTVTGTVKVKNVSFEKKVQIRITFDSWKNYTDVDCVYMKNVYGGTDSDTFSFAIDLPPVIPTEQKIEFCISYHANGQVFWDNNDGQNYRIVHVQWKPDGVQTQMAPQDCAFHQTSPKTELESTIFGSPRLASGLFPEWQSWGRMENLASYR
B2: Protein phosphatase 1 regulatory subunit 3C (Homo sapiens), Q9UQK1 (parent)
chain: B1 partner
partner: B1 chain

Variants of: B1
Details: with ppr3c_human PPP1R3C

Row | Variant | effect of a mutation on the interaction
1 | G279S | decreasing interaction
2 | C266S | increasing interaction
3 | Q293L | disrupting interaction
4 | Y294N | disrupting interaction
5 | W32G | disrupting interaction
6 | F84L | disrupting interaction
7 | P301L | disrupting interaction
8 | T194I | disrupting interaction
9 | G240S | decreasing interaction
10 | R108C | disrupting interaction

Variants of: B2
Details: with epm2a_human EPM2A

Row | Variant | effect of a mutation on the interaction
11 | D247A;D250A | disrupting interaction
